The test system of the data set is MS2 coat protein. Description: apparent KD of MS2 coat protein; designed switch direction (-1 OFF switch, 1 ON switch): -1; higher = weaker reporter binding. An outline of the steps:
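Designed RNA switches with common flanks were made on Illumina chips by stalled E. coli RNA polymerase. Titration with SNAP-549-labelled MS2 coat protein doubled from 0.7 or 1.5 nM up to 3 µM. Apparent KD is each design's median over clusters after curve-fitting normalised fluorescence.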

Setting [1] is: input ligand: microRNA oligo, concentration not stated.
Where [2] appears, read: Eterna round: R95, input ligand: microRNA oligo, concentration not stated.
Setting [3] is: Eterna round: R95, input ligand: FMN 200 uM.
[4] abbreviates: Eterna round: R95, input ligand: none.

The source of these data is the supplement of paper PMC9170038.

Consider “UUAGAUAGGUCAGGAUAUCGAUUAUUGUAUAGUAUGAUUUACAUGAGGAUCACCCAUGUUAAAUACGAGAAGGGACGUUAGAUU [JR_ExcNG2_Sub022] (Eterna round: R96, puzzle: Exclusion NG 2)”, for which the “apparent KD of MS2 coat protein” value under setting [1] was found to be 16.9 nM.
Still for that read-out and setting: as for “UUAGAUUAUUGAGGAUAUGGAUAUUUUUAUUAACCAGAAGGCAAACUCAACAUGAGGAUCACCCAUGUAUAAAGGGUAUUAGUU [JR_ExcNG1_Sub098] (Eterna round: R96, puzzle: Exclusion NG 1)”, the figure is 71.2 nM.
On to “UUAGCGUAUGUAAGGAUAUGCUGGUCUAAUGAUCAGCAGAAGGUACAUGAGGAUCACCCAUGUGUAUUCGUUAU [Mod of JL 7 - Jieux - Brourd's mod of Exclusion 4] (Eterna round: R97, puzzle: Brourd's mod of Exclusion 4)”, for which the “apparent KD of MS2 coat protein” value is, setting by setting: (input ligand: FMN 200 uM) 75.9 nM; (input ligand: none) 18.4 nM.
As for “UUAGGCUGAAGAUCAAUUAAUUAACAUGAGGAUCACCCAUGUAAGGAUAUCAGCUCGAUUAGAGCUGAGAAGGUACAUGCAGCC [ExNG3/18-A1] (Eterna round: R96, puzzle: Exclusion NG 3)”, the “apparent KD of MS2 coat protein” value under setting [1] was found to be 102 nM.
“UUAUAAAGUGUGAGGAUAUGCUGGUCCAUAGAUCAGCAGAAGGCACAUGAGGAUCACCCAUGUAAUAUAUUUUU [Mat - Exclusion 4 - JL Mod - D43] (puzzle: Brourd's mod of Exclusion 4)”: the “apparent KD of MS2 coat protein” value under setting [2] was 27.2 nM.
On to “UUAUAACAUGAGGAUCACCCAUGUUAGGAUAUCGCAGUAAGCUUCAGUAAUGAGCAUUCGAGAAGGAACGGGUA [Eternabot (L2) Solution 63] (Eterna round: R97, puzzle: Exclusion 1)”, for which the “apparent KD of MS2 coat protein” value reads like this: (input ligand: FMN 200 uM) 22 nM; (input ligand: none) 22 nM.
In the case of “UUAUACGCUGAGGAUAUCUUCACUAAAGUGUGAAGAGAAGGCGGUACAUGAGGAUCACCCAUGUCUAUGGGCAG [Ex-6 Malc#18] (puzzle: Exclusion 6)”, the “apparent KD of MS2 coat protein” value by setting is: under setting [3], 596 nM; under setting [2], 568 nM; under setting [4], 282 nM.
Turning to “UUAUACGUUGAGGAUAUGCGAAUAAGUAUAGUUGCAGAAGGCGAUACAUGAGGAUCACCCAUGUUCAUGGACAU [LRO-Ex6-04] (puzzle: Exclusion 6)”, under setting [2], the “apparent KD of MS2 coat protein” value was 106 nM.
The same measure, in the same setting: the figure for “UUAUACGUUGAGGAUAUGCGAAUUAGUAUAGUUGCAGAAGGCGAUACAUGAGGAUCACCCAUGUUUAUGGGCAU [LRO-Ex6-06] (puzzle: Exclusion 6)” is 152 nM.
Turning to “UUAUAGUAUGUAGGAUAUCGGUCAGUUUCUGAUCGAGAAGGACAUGAGGAUCACCCAUGUAAGGCUACCGGUUUCUGGUGGCCU [JL ENG1 3.52] (Eterna round: R96, puzzle: Exclusion NG 1)”, the “apparent KD of MS2 coat protein” value reads like this: (input ligand: FMN 200 uM) 94.4 nM; under setting [1], 18.5 nM; (input ligand: none) 20.9 nM.
As for “UUAUAUAGAGUGAGGAUAUGCUGGUCCUUGGAUCAGCAGAAGGCACAUGAGGAUCACCCAUGUAAAAUAAUAUU [Mat - Exclusion 4 - JL Mod - D39] (puzzle: Brourd's mod of Exclusion 4)”, the “apparent KD of MS2 coat protein” value under setting [2] stood at 21.1 nM.
On to “UUAUUAAAUGUAGGAUAUGCAUAUUAUUAUUAUGCAGAAGGACAUGAGGAUCACCCAUGUAUAUUAUUAUUAUAUAUUAUAUAU [Title] (Eterna round: R96, puzzle: Exclusion NG 1)”, for which the “apparent KD of MS2 coat protein” value under setting [1] came out at 26.5 nM.
Regarding “UUAUUAAGUGUGAGGAUAUGCUGGUCCUUGGAUCAGCAGAAGGCACAUGAGGAUCACCCAUGUACAAUAUAUUA [Mat - Exclusion 4 - JL Mod - D30] (Eterna round: R96, puzzle: Brourd's mod of Exclusion 4)”, the “apparent KD of MS2 coat protein” value by setting is: (input ligand: FMN 200 uM) 235 nM; under setting [1], 30.5 nM; (input ligand: none) 42.1 nM.
As to “UUAUUAAGUGUGAGGAUAUGCUGGUCCUUGGAUCAGCAGAAGGCACAUGAGGAUCACCCAUGUACAAUAUAUUA [Mat - Exclusion 4 - JL Mod - D30] (puzzle: Brourd's mod of Exclusion 4)”, the “apparent KD of MS2 coat protein” value under setting [2] was 38.7 nM.
Take “UUAUUAGCAGGAUAUAUCCGGGAUCACAUGAGGAUCACCCAUGUGACCGCUUGAGAUUCUAUAGAAGGGCUUUAUU [Mod of ViennaUCT 32 - Jieux - Exclusion 5] (Eterna round: R97, puzzle: Exclusion 5)”: the “apparent KD of MS2 coat protein” value is 19.6 nM (input ligand: FMN 200 uM) and 18.6 nM (input ligand: none).
Take “UUAUUAUAUGUAGGAUAUGCAUAUUAUUAUUAUGCAGAAGGACAUGAGGAUCACCCAUGUAUAUUAUUAUUAUAUAUUGUAUAU [Title] (Eterna round: R96, puzzle: Exclusion NG 1)”: under setting [1], the “apparent KD of MS2 coat protein” value is 23.2 nM.
For the sequence “UUAUUAUAUGUAGGAUAUGCAUAUUAUUAUUAUGCAGAAGGACAUGAGGAUCACCCAUGUAUAUUAUUAUUGUAUAUUAUAUAU [Title] (Eterna round: R96, puzzle: Exclusion NG 1)”, under setting [1], the “apparent KD of MS2 coat protein” value stood at 25.7 nM.
The same measure, in the same setting: the figure for “UUAUUAUAUGUAGGAUAUGCGUAUUAUUAUUAUGCAGAAGGACAUGAGGAUCACCCAUGUAUAUUAUUAUUAUAUAUUAUAUAU [Title] (Eterna round: R96, puzzle: Exclusion NG 1)” is 23.5 nM.
As for “UUAUUAUAUGUAGGAUAUGCGUAUUAUUGUUAUGCAGAAGGACAUGAGGAUCACCCAUGUAUAUUAUUGUUAUAUAUUAUAUGU [Title] (Eterna round: R96, puzzle: Exclusion NG 1)”, the “apparent KD of MS2 coat protein” value came out at 110 nM (input ligand: FMN 200 uM), 26.6 nM under setting [1] and 30.3 nM (input ligand: none).
For the sequence “UUAUUGUGAGGAUAUCAGGUGUGCUAGCGUACUGGUACAUCUGAGAAGGCACAUGAGGAUCACCCAUGUUUCUU [JL-ex4-3.22 Brourd mod] (Eterna round: R96, puzzle: Exclusion 4)”, the “apparent KD of MS2 coat protein” value came to 69.6 nM (input ligand: FMN 200 uM), 18.9 nM under setting [1] and 25 nM (input ligand: none).
“UUAUUGUGAGGAUAUCAGGUGUGCUAGCGUACUGGUACAUCUGAGAAGGCACAUGAGGAUCACCCAUGUUUCUU [JL-ex4-3.22 Brourd mod] (puzzle: Exclusion 4)”: under setting [2], the “apparent KD of MS2 coat protein” value was found to be 21.1 nM.
Turning to “UUAUUGUUAGAGGAUAUAUUAAGGUAUGCUUUGAUAGAAGGCUAUACAUGAGGAUCACCCAUGUUUUUUGGGAU [JR_Ex6_Sub076] (Eterna round: R97, puzzle: Exclusion 6)”, the “apparent KD of MS2 coat protein” value (input ligand: FMN 200 uM) was found to be 654 nM and the “apparent KD of MS2 coat protein” value (input ligand: none) amounted to 328 nM.
With “UUAUUUAGUGUGAGGAUAUGCUGGUCGAUAGAUCAGCAGAAGGCACAUGAGGAUCACCCAUGUAAUAUAUUAAA [Mat - Exclusion 4 - JL Mod - D34] (puzzle: Brourd's mod of Exclusion 4)”, the “apparent KD of MS2 coat protein” value under setting [2] was 51.5 nM.
“UUCACAUGGACAUAAGAUCACAUGAGGAUCACCCAUGUGAAUAACAAGCUUUUUGCUCGUCUUAUGUCCAAUAAUAG [Stov1/14-A2] (Eterna round: R97, puzzle: Sensor, turn-off variant 1)”: the “apparent KD of MS2 coat protein” value was found to be 15.8 nM (input ligand: FMN 200 uM) and 13.3 nM (input ligand: none).
“UUCACAUGGACAUGAGAUCACAUGAGGAUCACCCAUGUGAAUAACAAGCUUUUUGCUCGUCUUAUGUCCAAUAAUAA [Stov1/14-C1] (Eterna round: R97, puzzle: Sensor, turn-off variant 1)”: the “apparent KD of MS2 coat protein” value worked out at 14 nM (input ligand: FMN 200 uM) and 12.8 nM (input ligand: none).
The like results for “UUCACGUCAGGAUAUCCAUAUUUCUGAUAUAACGGUACUUUGGAGAAGGGACAUGAGGAUCACCCAUGUCCUCU [LRO-Excl4-19-Nando 22 Mod] (Eterna round: R97, puzzle: Exclusion 4)” were, in that order, 15.5 nM and 16.9 nM.
As for “UUCAUGUGAGGAUAUGUGUACUGCUUUCUGUUUAGAUGUACACAGAAGGCACAUGAGGAUCACCCAUGUAGUAC [Ex4 - 3 - 31] (puzzle: Exclusion 4)”, the “apparent KD of MS2 coat protein” value under setting [2] turned out to be 33.8 nM.
Turning to “UUCCAACGAGGAUAUCGAUGGUGGAACAUGAGGAUCACCCAUGUAUGAGAUAUUGUAGUUCGAGAAGGCGUUCAGU [JR_E5_Sub056] (puzzle: Exclusion 5)”, under setting [2], the “apparent KD of MS2 coat protein” value came to 31.5 nM.
Consider “UUCCUACAUGAGGAUCACCCAUGUCAGGAUAUAUAAAACGCUCAGAUAAAAGAGCAAGAUAGAAGGGAUUGGGA [Aquis] (Eterna round: R97, puzzle: Exclusion 1)”, for which the “apparent KD of MS2 coat protein” value was 14.5 nM (input ligand: FMN 200 uM) and 15.1 nM (input ligand: none).
Regarding “UUCCUACAUGAGGAUCACCCAUGUGAGGAUAUGCAUCGUAUUAUUCUCGUAUGUAGUAGCAGAAGGCGCAUUGG [Starry Exclusion 1.1] (Eterna round: R96, puzzle: Exclusion 1)”, the “apparent KD of MS2 coat protein” value was 82.5 nM (input ligand: FMN 200 uM), 15.9 nM under setting [1] and 29 nM (input ligand: none).
On to “UUCCUACAUGAGGAUCACCCAUGUGAGGAUAUGCAUCGUAUUAUUCUCGUAUGUAGUAGCAGAAGGCGCAUUGG [Starry Exclusion 1.1] (puzzle: Exclusion 1)”, for which the “apparent KD of MS2 coat protein” value by setting is: under setting [3], 121 nM; under setting [2], 36.9 nM; under setting [4], 31.2 nM.
For the sequence “UUCCUCGUUGUGAGGAUAUCGUAUUCUUUUUGUUACGAGAAGGCACAUGAGGAUCACCCAUGUUUCUUGAUGUU [JR_BMOE4_Sub069] (puzzle: Brourd's mod of Exclusion 4)”, under setting [2], the “apparent KD of MS2 coat protein” value turned out to be 19.6 nM.
Same read-out and setting: the figure for “UUCCUGUCAGGAUAUGACUAGAUGCACGUUAGUGUGUUUACUUAGAAGGGACAUGAGGAUCACCCAUGUAGUCC [Bring Us a Shrubbery-16] (puzzle: Exclusion 4)” is 31.7 nM.
As to “UUCGGCGGAGGAUAUACAGUUUUUUGUUGAAUCGGCGGGAAACAUGAGGAUCACCCAUGUAGAAGGUUGUUGAA [-18.7, -16.7 kcal, A 27%] (Eterna round: R97, puzzle: Exclusion 2)”, the “apparent KD of MS2 coat protein” value runs as follows: (input ligand: FMN 200 uM) 63.3 nM; (input ligand: none) 78 nM.
